Test results as given in US8809027B1, “Genetically modified organisms for increased microbial production of 3-hydroxypropionic acid involving an oxaloacetate alpha-decarboxylase” (OPX Biotechnologies, Inc., priority 2009, dated 2014).
Where a chain is given by its changes, count along the chain named. Names may count otherwise.

B1: KGD: alpha-ketoglutarate decarboxylase (kgd) from Mycobacterium tuberculosis, penta-histidine tag, purified (protein, listed as Mycobacterium tuberculosis)
chain: MNLRGTAARRRHRATGDTLDARQLVRQQLRQLQTETRPGALVRWFLLDPKELFDIFVTIQGFTQTTTRQRRQLLQTHNCQIITVVFRLACRQFIIQLTGGQQNTANFIAVADTILVGRFLQDATEFNLGKILNLRNRRLVAQHGFRGKHDQRTLDAVQRVAAQQVKVIGRGARHRDRHATLSPQLQKALNARRRVVRALTLVAVWQQQNNVGQLTPFRFARADELVNDRLGTINKVAELRLPQHNRVWIANGITVLKTHSRVFRQRRIINQELTTGRAAVAVSRQQLQRGELLAGVTVDQHRMTLAKGATTRVLTAQTDQLALSNQAAQRQQLTKRPVNLTLIRHLTTLFQHRLNARVCRETVRQRQEGITDTCQQGFVNSGRQARWDHLVRLDALRRLDAVLLQFAHFVEHTLQLALVIAQRILRLFHADVATTDQSLGVGFTGATLGVHDVIDIRIGHRWIVTLIMTTTTIAQHVNNNVLFKALAEVNCQTRNPDTRFWIVAVHVEDWRTDHLRHIRAVLARTRVFRSGGEADLVVHNDVNRTTHTIARQICQIQRLRNNALTREGRITVQHQRNDGECTLAVGVNGTVVQQVLLRTHQTFQHWIDRFQMGRICRQGNLNIVIAKHLQIQTRRTQVVLDIAGTVSLGRVQIAFKLRKDLRIRFAHDVRQDIQATTVRHANDHFIQTMLGTLVNRRVHHWNNRFRTLQAKTLLAHILGLQEGFKRLRCVQFRQDVLLLSNGRFDVLRLDTLLQPLLLFRVQNVRVLNTDVTAVRVAQQTQHVTQLFVLSTRETVNLKDAVQVPQSQAMRQHLQIRMRTKARLIQAQRVGVRHQMAAVAIGRDQVHHTCVLVNDRVRIIGAPTHWQVRDAQLAEDLIPEAIRQQQFMNGTQEVTAFRTLNDTVVVGRSQGNQFANTQLSDAFLGRALELRRIFHRTDTDDSTLTWHQAWHRVHRANRARIRQRNRNASEVLGGQFTITSTTDDVLVRGNELREAHRLATFDTGHHQRALAIFTLQVNSQTQIGVRRSNRRRLTVHLRVVAIHIRELLNRLNQSITQQMGKADFTTTRAFQLIIDHDTIIDQQFRWHSTHRGRRRHFQRRAHVLHDSSRRTTQDSNFIAFGWRRHRGLGGQSRHDTVARCGRVGRFRRRLRSRRCRTLSDQRAGHTSRLSSRLGSRLRAIVHQKLMPAWVNGRRIITKFTIHTNTRRVLSHHGYISFLKNSISQRQGRHKIYSKCIINTDNIL
modifications: penta-histidine tag
notes: alpha-ketoglutarate decarboxylase (kgd) from Mycobacterium tuberculosis, penta-histidine tag, purified
B2: Mutant Oad 1: variant of Leuconostoc mesenteroides oad with mutations N45T, R249L, D302G, V418A and L476Q (protein)
chain: MTDTLTFNTKHLLEALFESGIRHFIVSPGSRSTPIALLLAEYAEQTNEIKLFVDVDERSAGFFALGIAKTLLEPVVLLGTSGTAIAEYMPAVAEAYAANIPLVVLSTDRPQELQFNGAPQTIPQSNLFGQLTKQAVLIRLQDMHSDVTEYIDFIVQKVVNLSITAPRGPIQINLPLRKPLMPVLDRQDEVHVQRVVFDKQSVQYRLPPITAKRLLILAGPNVLNSYDDSLKKFAIKNNVPVIADVLSQSLHTYTIHGIDVLLQAHKINADLKPDLVVRFGKTPVSARVLQWLKEENILTWHVGEDAGVDHTRHIVRAIKMAPHDFLESMHLTLSKNQIDFNQKWLSLPKVIKTRNEMNIITALDDAVPDDTHIFVANSMPIRDMDNFFTGNHTQRIYANRGANGIDGVISSALGMSAVAKQRSVLLTGDLTLFHDMNGLMMAKNYQLPLDIIVINNNGGGIFSFLPQAGAPKYFEQQFGTPLNIDIKKIADLYYIDYHQLNVPEALSQILQTPSKTTRLIEYKSDHQRNRDDHREVLEMLK
modifications: Leuconostoc mesenteroides
notes: variant of Leuconostoc mesenteroides oad with mutations N45T, R249L, D302G, V418A and L476Q
B3: Mutant Oad 3: variant of Leuconostoc mesenteroides oad with mutations R394C, D434G and T511A (protein)
chain: B2 chain with T46N, L250R, G303D, R395C, A419V, D435G, Q477L, T512A
modifications: Leuconostoc mesenteroides
notes: variant of Leuconostoc mesenteroides oad with mutations R394C, D434G and T511A
B4: Mutant Oad 2: variant of Leuconostoc mesenteroides oad with mutation T479N (protein)
chain: B2 chain with T46N, L250R, G303D, A419V, Q477L, T480N
modifications: Leuconostoc mesenteroides
notes: variant of Leuconostoc mesenteroides oad with mutation T479N

Experiments:
Type in all cases: biochemical
[1] = GC-MS analysis of 3-HP produced in the spectrophotometric assay samples
Method: A coupled assay was developed in order to biochemically assess the oxaloacetate alpha-decarboxylase activity of the candidate enzymes. The coupled assay used exogenously-added purified E. coli YdfG protein, which converts malonate semialdehyde to 3-HP with the concomitant conversion of NADPH to NADP^+ (FIG. 5). […] 3-HP is also detectable by standard analytical methods, for example HPLC and GS-MS. Assays were performed as 200 microliter reactions in a 96-well plate format using a Molecular Dynamics SpectraMax 384 microplate reader with SoftmaxPro software (Molecular Dynamics, Sunnyvale Calif.) to quantitate the rate of change in the 340 nm absorbance. […] The progress of each reaction was monitored for 20 minutes during which measurements were made every 20 seconds. […] Once the reaction time course was read and the slopes of each well were calculated, the specific activities over the negative control of each candidate protein were calculated. All values reported are the average specific activities measured in triplicate.
Activity of KGD was not measured by the spectrophotometric assay.
Conformation of 3-HP production as well as assessment of the pH dependence of each candidate enzyme was performed as described above, except that coupled reactions with YdfG were evaluated for 3-HP production by GC-MS. […]

[2] = GC-MS confirmation of 3-HP production and pH dependence of candidate enzymes (coupled reaction with YdfG); conditions: 3-HP by GC-MS at pH 5.5, pH 6.0 and pH 6.8; 5 mM oxaloacetate; 37° C., at least 12 hours
Method: Conformation of 3-HP production as well as assessment of the pH dependence of each candidate enzyme was performed as described above, except that coupled reactions with YdfG were evaluated for 3-HP production by GC-MS. Reaction conditions consisted of 50 mM PIPES pH 6.8, 2 mM thymidine pyrophosphate, 10 mM dithiothreitol, 4 mM magnesium chloride, 1 mM NADPH (EMD Bioscience), 0.075 mg/mL purified YdfG (Molecular Throughput), and 5 mM oxaloacetate (unless otherwise stated). All chemicals were obtained from Sigma-Aldrich unless otherwise stated. Reactions were performed at 0.6 mL volumes in triplicate and were initiated with the addition of 600 micrograms of purified protein. In addition, a negative control lacking protein was also performed with each set. Reactions were allowed to proceed at 37° C. for at least 12 hours. […] Soluble monomeric 3-HP is quantified using GC-MS after a single exaction with ethyl acetate from a reaction sample. […] A standard curve of known 3-HP concentrations is prepared at the beginning of the run and a known quantity of ketohexanoic acid (1 g/L) is added to both the standards and the samples to act as an internal standard for Quantitation, with tropic acid as an additional internal standard. […] 3-HP is quantified using a 3HP standard curve at the beginning of the run and the data are analyzed using HP Chemstation. […]

[3] = Coupled spectrophotometric assay of oxaloacetate alpha-decarboxylase activity (purified YdfG, NADPH absorbance at 340 nm); conditions: for Average Specific Activity: oad variants versus native Oad in the spectrophotometric assay; for Fold Increase in oxaloacetate alpha-decarboxylase specific activity: relative to native (parent) Oad lacking mutations, in vitro
Method: A coupled assay was developed in order to biochemically assess the oxaloacetate alpha-decarboxylase activity of the candidate enzymes. The coupled assay used exogenously-added purified E. coli YdfG protein, which converts malonate semialdehyde to 3-HP with the concomitant conversion of NADPH to NADP^+ (FIG. 5). […] 3-HP is also detectable by standard analytical methods, for example HPLC and GS-MS. Assays were performed as 200 microliter reactions in a 96-well plate format using a Molecular Dynamics SpectraMax 384 microplate reader with SoftmaxPro software (Molecular Dynamics, Sunnyvale Calif.) to quantitate the rate of change in the 340 nm absorbance. All assays were conducted at 37° C., and the instrument was allowed to mix the plate for 1 second prior to each measurements. The progress of each reaction was monitored for 20 minutes during which measurements were made every 20 seconds. Reaction conditions consisted of 50 mM PIPES pH 6.8 (unless otherwise stated), 2 mM thymidine pyrophosphate, 10 mM dithiothreitol, 4 mM magnesium chloride, 1 mM NADPH (EMD Bioscience), 0.075 mg/mL purified YdfG (Molecular Throughput), and 5 mM oxaloacetate (unless otherwise stated). All chemicals were obtained from Sigma-Aldrich (St. Louis, Mo.) unless otherwise stated. Reactions were initiated with the addition of 10 microliters of concentrated purified protein to each reaction well. In addition, a negative control was performed with each experimental set to control for the rate of background NADPH oxidation. Once the reaction time course was read and the slopes of each well were calculated, the specific activities over the negative control of each candidate protein were calculated. All values reported are the average specific activities measured in triplicate.

Row | Molecule | Final [3HP] ([1]; Beginning [OAA] 5 mM, pH 6.8) | 3-HP production confirmed by GC-MS ([1]; in the presence of 5 mM oxaloacetate) | pH of optimal activity [2] | Average Specific Activity [3] | Fold Increase in oxaloacetate alpha-decarboxylase specific activity [3]
1 | B1 | 0.004 ± 0.001 g/L | 3-HP was produced | 6.8 | – | –
2 | B2 | – | – | – | 0.0121 units/mg | 1.6 fold
3 | B3 | – | – | – | 0.0222 units/mg | 2.8 fold
4 | B4 | – | – | – | 0.0173 units/mg | 2.2 fold
